Source: paper PMC6801647, “Crystal Structure of Kluyveromyces lactis Glucokinase (KlGlk1)” (International Journal of Molecular Sciences, 2019)
Values belong to the molecule of their own block, whether it stands above or below them.

How the values were obtained:
[1] = target: Kluyveromyces lactis glucokinase (KlGlk1) (Kluyveromyces lactis) (UniProt Q6CUZ3); experiment: SEC-MALS; size-exclusion chromatography (Superdex 200 Increase 10/300 GL) coupled to right-angle/low-angle light scattering (RALS/LALS) and refractive index, OMNISEC REVEAL; 50 mM Tris pH 7.8, 200 mM NaCl, 5 mM beta-ME
[2] = substrate: Nc1ncnc2c1ncn2[C@@H]1O[C@H](COP(=O)(O)OP(=O)(O)OP(=O)(O)O)[C@@H](O)[C@H]1O; experiment: G6PD-coupled assay, fit over ATP range preceding substrate inhibition; assay type: biochemical, Kluyveromyces lactis; details: 0.5 mM glucose, 5 mM MgCl2, 50 mM KCl, 250 mM sucrose, 20 mM Tris-HCl pH 7.4, 37 °C, Hill coefficient 1.97 at low ATP, substrate inhibition from 0.25 mM ATP

stoichiometry N [1]: 2
Molecule: Kluyveromyces lactis glucokinase (KlGlk1) (from UniProt Q6CUZ3 49-481) (enzyme)

B1: KlGlk1 (Kluyveromyces lactis NRRL Y-1140) (protein)
chain: SDPKLTKAVDSICDQFIVTKSKISQLTEYFIDCMEKGLEPCESDISQNKGLPMIPTFVTDKPSGQEHGVTMLAADLGGTNFRVCSVELLGNHEFKIEQEKSKIPTFFFQDDHHVTSKDLFQHMALITHQFLTKHHKDVIQDYKWKMGFTFSYPVDQTSLSSGKLIRWTKGFKIGDTVGQDVVQLFQQELNDIGLSNVHVVALTNDTTGTLLARCYASSDAARAINEPVIGCIFGTGTNGCYMEKLENIHKLDPASREELLSQGKTHMCINTEWGSFDNELNHLPTTSYDIKIDQQFSTNPGFHLFEKRVSGLYLGEILRNILLDLEKQELFDLKESVLKNNPFILTTETLSHIEIDTVENDLQDTRDALLKAADLETTFEERVLIQKLVRAISRRAAFLAAVPIAAILIKTNALNQSYHCQVEVGCDGSVVEHYPGFRSMMRHALALSPIGPEGERDVHLRISKDGSGVGAALCALHANY
notes: codon-optimized synthetic gene in pET24d, E. coli BL21 (DE3); N-terminal His-tag removed with TEV protease; dimer in solution (100 kDa apparent); crystal model residues 2-481
Km [2]: 150 µM
kcat [2]: 400 s⁻¹
